Results published in the nanobody polyreactivity screen of Harvey et al. (2022).

Experiment: yeast display, Sf9 membrane polyspecificity reagent, FACS + sequencing; frameworks hold sequencing errors
Method in brief: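 A synthetic nanobody library was expressed on Saccharomyces cerevisiae BJ5465 by galactose induction for 36–48 hours. The library was stained for 1 hour at 4 °C with 10% biotinylated, detergent-solubilized Sf9 membrane reagent and enriched with streptavidin microbeads before FACS. Low and high (top ~1%) gates were set on anti-HA fluorescence for expression and streptavidin fluorescence for reagent binding, and each polyreactivity label reflects the gate of origin.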

Row | Sequence | polyreactivity (PSR sort gate)
1 | QVQLVESGGGLVQAGGSLRLSCAASGSTFRHYAMGWYRQAPGKESELVAAISSTGGSTHNADSVKGRFTISRDNAKNTVFLQLHSLKPEDTAVDYCAARRLYWGQGTQVTVSS | high polyreactivity
2 | QVQLVESGGGLVQAGGSLRLSCAASGRTFFLYTIGWYRQAPGKEREFVAAITTIGGSTYYADSVKGRFTISRDNAKNTVSLQMHSLKPEDTAVYYCNARVGPELHDYWGQGTQVTVSS | low polyreactivity
3 | QVQLVDSGGGLVQAGGSLRLSCAASGFNFDQYGLGWYRQAPGKERELVASITSTGSTYYADSVKGRFTISRDNAKNTVYLQMNSLKPEDTAVYYCATDSYDGMDYWGQGTQVTVSS | low polyreactivity
4 | QVQLVESGGGLVQAGGSLRLSCAASGITFAQYAMGWYRQAPGKERELVAGITRSGGSTHYADSVKGRFTISRDNAKNSVYLQMNSLKPEDTAVYYCAKGLSTGRAYRGYDYWGQGTQVTVSS | high polyreactivity
5 | QVQLVESGGGLVQAGGSLRLSCAASGITLPAYTMGWYRQAPGKERELVAAISWGGTSTYYADSVKGRFTISRDNAKNTVYLQMNSLKPEDTAVYYCNKAYATYPGYDYWGQGTQVTLSS | high polyreactivity
6 | QVQLVESGGGLVQAGGILRLSCAASGRTFLVNAMGWYRQAPGKERELVAAISQRGGSTDYADSVKGRFTISRDNAKNTVYLQMNSLKPEDTAVYYCAVRWGYLYDYWGQGTQVTVSS | low polyreactivity
7 | QDQLVESGGGLVQAGGSLRLSCAASGRTFDRNAMGWYRQAPGKERELVARITIDGSTNYADSVKGRFTISRDNAKNTVYLQMNSLKPEDTAVYYCATDQLSLSWYFRPYDYGYWGQGTQVTVSS | high polyreactivity
8 | QVQLVESGGGLVQAGGSLRLSCAASGITFYYYAMGWYRQAPGKERELVAAISDNGSRTYYADSVKGRFTISRDNAKNTVYLQMNSLKPEDTAVYYCAAEGSYGYDYWGQGTQVTVSS | high polyreactivity
9 | QVQLVESGGGLVQAGGSLRLSCAASGIFWYYAMGWYRQAPGKERELVAAISSGGSTYYADSVKGRFTISRDNAKNTVSLQMNSLKPEDTAVYYCNAVYWKASHYGYGYWGQGTQVTVSS | high polyreactivity
10 | QVQLVESGGGLVQVGGSLRLSCAASGRTFWWYAMGWYRQAPGKERELVAAISRGSTNYADSVKGRFTISRDNAKNTVYLQMNSLKPEDTAVYYCKAVSLYQSHDYDYWGQGTQVTVSS | low polyreactivity
11 | QVQLVESGGGLVQAGGSLRLSCAASGSTFLSYAMGWYRQAPGKERELVATINRGGSTYYADSVKGRFTISRDNAKNTVYLQMNSLKPEDTAVYYCAKANKRGRYNYWGQGTQVTVSS | high polyreactivity
12 | QVQLVESGGGLVQAGGSLRLSCAASGNTFSPYAMGWYRQAPGKERELVAAITFRGGSTYYADSVKGRFTISRDNAKNTVYLQMNSLKPEDTAVYYCNAERGGWSGYFGYDYWGQGTQVTVSS | low polyreactivity
13 | QVQLVESGGGLVQAGGSLRLSCAASGNIFYSYAMGWYRQAPGKARELVATIRSGGSTYYADSVKGRFTISRDKAKNTVYLQMNSLKPEDTAVYYCAAPYPYRYFEYYWGQGTQVNVSS | low polyreactivity
14 | QVQLVESGGGLVQAGGSLRLSCAASGLSCYPYAMGWYRQAPGKEMELVAAITSGDSTYYADSVKGRFTISRDNAKNTVYLQMNSLKPVDTAVYYCAKPDWVEVVTDFEYWGQGTQVTVSS | low polyreactivity
15 | QVQLVESGGGLVQAGGSLRVICAASGSIGRYAMGWSRQAPGKERELVAAISSSGGSTYYADSVKGRFTISRDNAKNTVYLQMNSLKPEDTAGYYCAACPGAQEDDYWGPGTQVTVSS | high polyreactivity
16 | QDQLVESGGGLVQAGGSLRLSCAASGSIFPYNAMGWYRQAPGKERELVATISSGGSTNYADSVKGRFTISRDNAKNTVYLQMNSLKPEDTAVYYCAAVVIVFYYAPNYWGDIEYGYWGQGTQVTVSS | low polyreactivity
17 | QVQLVESGGGLVQAGGSLRLSCAASGFTFPSYTMGWYRQAPGKERELVAAISWSGGRTYYADSVKGRFTISRDNAKITVYLQKNSLKPEETAVYYCAAGYRTGGDSGDYWGQGTQVTVSS | high polyreactivity
18 | QVQLVESGGGLVQAGGSLRLSCAASGSIFHRNTMGWYRQAPGKEREFVAGISWGGGRTYYADSVKGRFTISRDNAKNTVYLQMNSLKPEETAVYYCAAKTGGGGRLSTVYYWGQGTQVTLSS | high polyreactivity
19 | QVQLVESGGGLVQAGGSLRLSCAASGRIFVNNAMGWYRQAPGKERELVAAISKRGGSTYYADSVKGRFTISRDNAKNSVYLQMNSLKPEDTAVYYSAATPVYSGPYDYWGQGTQVTVSS | high polyreactivity
20 | QVQLVESGGGLVQAGGSLRLSCAASGSIFNNNAMGWYRQAPGKERELVADITASGGNTNYADSVKGRFTISRDNAKNTVYLQMNSLKPEDTAVYYCNAGGFYGTLFFPLDIYYVGYDYWGQGTQVTVSS | low polyreactivity
21 | QVQLVESGGCLEQAGGSLRLSCAASGFTFVSNDMGWYRQAPGKERELVAAISQGGGSTYYADSVKGRFTISRDNAKNTVYLQMNSLKPEDTAVYYCAAEDVYFGYDYWGQGTQVTVSS | low polyreactivity
22 | QVQLVESGGGLVQAGGSLRLSCAASGSIFGHNTMGWYRQAPVKERELVAAISSGSRTNSADTVKGRFTISRDNAKNTVYLQMKSLKPEDTAVDYCATKVYSSRYRGYGYWGQGPQVTVSS | high polyreactivity

Row | Sequence | polyreactivity (PSR sort gate)
23 | QVHLVESGGGLVQAGGSHRLSCAASGFTIHRYAMGWYRQAPGKERELVAGITRRSGSTFYADSVKGRFTISRDNAKNTVFLQMNSLKPEDTAVYYCAATVPGLHWIYDYWGQGTQVTVSS | high polyreactivity
24 | QVHLVESGGGLVQAGGSLRLSCAAYGSIFHGNAMGWYRQAPGKERELVAAISWSGDSTYYADSVKGRFTISRDNAKNTVYLHMNSLKPEDTAVYSCNAEWTRDFYEYDYWGQGTQVTVSS | low polyreactivity
25 | QVQLVESGGGLVQAGGSLRLSCPASGSIFQGNAMGWYRQAPGKERELVAAISWSGDSTYYADSVKGRFTISRDNAKNTVYLQMNSLKPEDTAVYYCNAEWTRDFYEYDYWGQGTQVTVSS | low polyreactivity
26 | QVQLVESGGGLVQAGGSLRLSCAASGSIITPYTMGWDRQAPGKERELVAAISWSGATTHYADSVKGRFTISRDNAKNTVYLQMNSLKPEDTAVYYCAARWGLRSSRYYYWGQGTQVTVSS | high polyreactivity
27 | QVQLVESGGGLVQAGGSLRLSCAASGFILDTYGMGWYRQAPGKERELVAAISQSDVSTYYADSVKGRFTISRDNAKNTVYLQMNSLKPEDTAVYYCNAGAGKRGYDYWGQGTQVTVSS | low polyreactivity
28 | QVQLVESGGGLVQAGGSLRLICAASGNTFSAYGMGYYRQAAGKERELVAGITNGGSTNYADSVKGRFTISRDNAMNTVYLQMNSLKPEDTAVYYCATVQYVEPPTPVDYWGQGTQVTVSS | low polyreactivity
29 | QVQLVESGGGLVQAGGSLRLSCAASGYTFRAYAMGWYRQAPGKEREFVAAISRSGGSTYYADSVKGRFTISRDNAKNTVYLQMNSLKPEDTAVYYCARRYARITPVYPPLNYWGQGSQVTVSS | high polyreactivity
30 | QVQLVESGGGLVQAGGSLRLSCAASGRIFYPYAMGGYRQAAGKEREFVAAISSGVSTNYADSVTGRFTISRDNATTTVYLQMNSLKPEDTAVYYCARSYFRYASSYYQAVSHGYSGQGTQVTVSS | high polyreactivity
31 | QVQLVESGGGLVQAGGSLRLSCAASGGTFSFYTMGWYRQAPGKERELVAAISRSGGRTYYADSVKGRFTISRDHAQNTVYLQMNSLKPEDTAVYYCAAERFSNIYTTMGYWGQGTQVTVSS | high polyreactivity
32 | QVQLVESGGGLVQAGGSLRLSCAASGSIFNYNMGLYRQAPGKERELVAAVSTNYADSVKGRFTISRDNAKNTVYLQMNSLKPEDYAVYYCGVTPEKSGDEYDNWGQGTQVTVSS | low polyreactivity
33 | QVQLVESGGGLVQAGGSLRLSCAASGSTFNWYAMGWYRQAPGKERELVAAISSGGNTNYADSVKGRFTISRDNAKNTVYLQMNSLKPEDTAVYYCAARYPYKHLAWSTSKRFGYWGQGTQVTVSS | low polyreactivity
34 | QVQLVESGGGLVQAGGSLRLSCAASGSTFTSYAMGWYRQAPGKEREFVAAISWSGGSTYYADSVKGRFTISRDNAKNTVYLQMNSLKPEDTAVYYCNAVLRSYYSPWYDYWGQATQVTVSS | high polyreactivity
35 | QVQLVESGGGLVQAGGSLRLSCAASGFTFGVYAMGWYRQAPGKERDLVAAISTTVGSTYYADSVKGRFTISRDNAKNTVYLQMNSLKPEDTAVDYCAAEYTGYINYYIYEYWGQGTQVTVSS | low polyreactivity
36 | QVQLVESGGGLVQAGGSLRLSCAASGRTFYIYAMGWYRQAPGKERALDAAITYGGGRTFYADSVKGRFTISRDNAKNTVYLQMNSLKPEDTAVYYCAATVRGKRSTYDYWGQGTQVTVSS | high polyreactivity
37 | QVQLVESGGCLVQAGGSLRLSCAASGSIFAAYTMGWYRQAPGKERELVAAISVSTVSTYYADSVKGRFTISRDNAKNTVYLQMNSLKPEDTAVYYCNADATDSYPEKDEHDSWGQGTQVTVSS | low polyreactivity
38 | QDQLVESGGGLVQAGGSLRLSCAASGSTFRGNAKGWYRQAPGKERELVAAITGSGGRRYYADSVKGRFTISRDYAKNTVYLQMNSLKPEDTAVYYCAAVYYGYRDRTDYGYWGQGTQVTVSS | high polyreactivity
39 | QVQLVESAGGLVQAGGSLRLSCAASGIIFVENAMGWYRQAPGKERELVAAISWDGGSTYYADSVKGRFTISRDNAKNTVYLQMNSLNPEDTAVYYCAADLTISYSQEYYYWGQGTQVTVSS | low polyreactivity
40 | QVQLVESGVGLVQAGGSLRLSCSASGSIFDYYAMGWYRQAHGKERELVAAISWRGGRTYYADSVKGRFTISRDNAKNTVYLQMNSLNPVDTAVYYCNTQEPYYESDYWGLGTQVTVSS | high polyreactivity
41 | QVQLVESGGGLVQAGGSLRLSCADSGSTIYGYAMGWYRQAPGKERELVAAISISGGGTYYADSVKGRFTISRDNAKNSVYLQMNSLKPEDTAVYYCARRYFWGQGTQVTVSS | low polyreactivity
42 | QVQLVESGGGLVQAGGSLRLSCAASGSIFAYYVMGWYRHAHGKERELVAAISARGGRTYYADSVKGRFTISRDNAKNTVYLQMNSLKQEDTAVYYCNALDQRYSQAVEYDYWGQGTQVTVSS | high polyreactivity
43 | QVQLVESGGGLVQAGGSLRLSCAASGFIFVFYAMGWYRQAPGKERELVAAITWSGGGTYYADSVKGRFTISRDNAKNTVYLQMNSLKPEDTAVYYCNAEEPQYYYVLDKLYDYWGQGTQVTVSS | low polyreactivity
